Assay results: the DeepSol protein solubility set

Experiment: soluble on expression in E. coli; label from the status in PepcDB or PDB records

Sequence	soluble on expression in E. coli
MKSVMSNPTFRQDSIRMFRGRKPPQKGKPAMEIKSERSDSQHTLTITVPLGKASRNDQPPSNLTEEAAKKVAGTGRNDGKKVQFAEKLVNKTKSPSTGPSTSKKLQKSQKTQKSSKKSQKKSKKSKKSSKSK	not soluble
MKTIHVSVVTPDGPVYEDDVEMVSVKAKSGELGILPGHIPLVAPLEISAARLKKGGKTQYIAVSGGFLEVRPDKVTILAQAAERAEDIDVLRAKAAKERAERRLQSQQDDIDFKRAELALKRAMNRLSVAEMK	soluble
MKTITETLNLAPKGKNFLTADWPAPANVKTLITTRNGGVSQGAYQSLNLGTHVGDNPEAVRRNREIVQQQVGLPVAYLNQIHSTVVVNAAEALGGTPDADASVDDTGKVACAVMTADCLPVLFCDRAGTAVAAAHAGWRGLAGGVLQNTIAAMKVPPVEMMAYLGPAISADAFEVGQDVFDAFCTPMPEAATAFEGIGSGKFLADLYALARLILKREGVGGVYGGTHCTVLERDTFFSYRRDGATGRMASLIWLDGNAV	soluble
MKTIWTGAIGFGLVNIPVKLFSATHESRLDLDMLDKKDHSNIKFQRVNAKTGKEVAWDNIVKGYKIEDDYVILDEKDFEKANAKKTKTIEILQFVQEDEIDSVYFETPYYIQPDKSGTRAYALLREALIKSKKVAVANYVLRNKEALAILKPVGNVIVLNKIRFQEEILDADALDLPAKSAIKEGEMKMALSLIDQLTETFDISKYKDTYTSELLKLIKAKAKGTVVKTKSAASKPTATKDLMAQLKASLQPTKRAAAR	not soluble
MKTLIEIKQTPDGIIKADKVFNKVKDKISLPNRILYLGCGSSHFLSKLLAMVTNMHGGLGIALPCSEFLYSKETYPIGEVELAVGISRSGETTEILLALEKINVKKLGITTRESSLTRMCDYSLVVPAIEESVVMTHSFTSFYFAYLQLLRYSYGLPPLNAGEISKATEKSLEYERYIREIVESFDFQNIIFLGSGLLYPVALEASLKMKEMSIFWSEAYPTFEVRHGFKAIADEKTLVVLMVEEPFEWHEKLVKEFKNQGAKVLVISNSPQDLGQDYSIELPRLSKDANPIPYLPIVQLLSYYKAVSRGLNPDNPRFLDKVVRW	soluble
MKTLNRRDFPGAQYPERIIQFGEGNFLRAFVDWQIDLLNEHTDLNSGVVVVRPIETSFPPSLSTQDGLYTTIIRGLNEKGEAVSDARLIRSVNREISVYSEYDEFLKLAHNPEMRFVFSNTTEAGISYHAGDKFDDAPAVSYPAKLTRLLFERFSHFNGALDKGWIIIPCELIDYNGDALRELVLRYAQEWALPEAFIQWLDQANSFCSTLVDRIVTGYPRDEVAKLEEELGYHDGFLDTAEHFYLFVIQGPKSLATELRLDKYPLNVLIVDDIKPYKERKVAILNGAHTALVPVAFQAGLDTVGEAMNDAEICAFVEKAIYEEIIPVLDLPRDELESFASAVTGRFRNPYIKHQLLSIALNGMTKFRTRILPQLLAGQKANGTLPARLTFALAALIAFYRGERNGETYPVQDDAHWLERYQQLWSQHRDRVIGTQELVAIVLAEKDHWEQDLTQVPGLVEQVANDLDAILEKGMREAVRPLC	not soluble
MKTLSPAVITLLWRQDAAEFYFSRLSHLPWAMLLHSGYADHPYSRFDIVVAEPICTLTTFGKETVVSESEKRTTTTDDPLQVLQQVLDRADIRPTHNEDLPFQGGALGLFGYDLGRRFESLPEIAEQDIVLPDMAVGIYDWALIVDHQRHTVSLLSHNDVNARRAWLESQQFSPQEDFTLTSDWQSNMTREQYGEKFRQVQEYLHSGDCYQVNLAQRFHATYSGDEWQAFLQLNQANRAPFSAFLRLEQGAILSLSPERFILCDNSEIQTRPIKGTLPRLPDPQEDSKQAVKLANSAKDRAENLMIVDLMRNDIGRVAVAGSVKVPELFVVEPFPAVHHLVSTITAQLPEQLHASDLLRAAFPGGSITGAPKVRAMEIIDELEPQRRNAWCGSIGYLSFCGNMDTSITIRTLTAINGQIFCSAGGGIVADSQEEAEYQETFDKVNRILKQLEK	soluble
MKTSPRSNRLHIALFGKRNSGKSSLINALTNQNAALVSDIAGTTTDPVYQPMEIHGIGPCVFIDTAGFDDEGELGSLRIERTLQAADKADIALMVCCDTELSEEQRWIELLKERNIPYLLVLNKADLLEKPDEVADKLEQQTGQHPLIVSAKEKTGIDSIRQSILHRLPELNEQPDIVGDLANEGDVVLLVMPQDIQAPKGRLILPQVQTLRELLDKKCITLSCTTDQLDNALKALSVPPSLIITDSQVFRTVYEKKPPQSRLTSFSVLFARYKGDIDYYTEGAYIIDQLTENSRVLIAEACTHAPLSEDIGRVKLPRMLRKRIGEKLHIDIVSGNDFPKDLNCYDLIIHCGACMFNRKHVLNRIVKAKAQGVPMTNYGIVIAYINGIPFH	soluble
MKTSSASKSHYTGQFPQGDLQPKTPIPVGRNSEIPKDAALSAQLKGLRPLDRKPSKMPTSSSDLQAVNKMIAENRSNDVGKGQFLLSTQSLGSAERVDSQNYHSRNESGKAPLFFSEFATEKPSLQSVKSLSQGKQDYYAVRHVGKRGRDLFTDEPIEGENSKLGRLKTSPLLSTQSQGTRAIRAFAATATIDKSRGEYVARLHRHVVEALGDEGGVVHLLRPTRDHYAEDSTLNFFTFCEQTELASSLNSLEAISAKKEDRKPIVFTDHKSLVGLSRTSRTEASPIGRLVQQPYFVTSDLKRGDKVVITDDHIQAGGSMLAMEAAAKEAGVDVLALATLSAHPFSPQLTMSSEVSAFLDETLAAWDPQGKVTERLAAIGMPREKLTNSEAMILIAYAIDPASDSAILRFESIQNNLFKRAHLHNVGIDPDAPDTLEQMQKLSSMQEMAGTDSARHFVDDAKVLEGEHDSLIPILKMKPASP	not soluble
MKTTEFTMPEITISYKDNVKASERVKILSSETSYTYLKPFYAECMEHHEESYVMFLNRANKALGISLISKGGMAETVMDVKIILQTALKVHASGIVLSHNHPSGNLRPSEPDKKITTKINEACKVLDLHLLDHIILTEESYYSFADEGLL	not soluble
MKTTTYNTDWAAEKTKIRSFFDEYYVDNEDGSGKAFPYRDQVFEIARRDKQAIVVNVDHIKESDIPDALELSEAITSNTKRYEVLFKDTISDMIQDYLGDKQAPVIDALDAYMFQRLHMDRNEGAANEEVSLQDKRKKYPPQLLQRFEVYFTTDDAAHETCVRNIKATEIGHLVSMKGVVIRATEVKPCVEVMTYTCDTCAAEVYQPVKGMQFTPPVNCPNKECVEAKANGRLHMQLRGSKFVKFQELKIQELSEQVPVGSIPRTMTVHVYGEMTRKCNTGNVVHVSGVFLPIMQSGFRPTGGLVADTYLEAHYINNLDDNPTFNGVQSAELEVLRRKGDNYETLAASIAPEIFGHVDVKKCLLMALVGGNDNSSNGMKIRGCINVLMMGDPGVAKSQLLGYVNRLAPRSQYTTGRGSSGVGLTAAVMKDPVTGEMSLEGGALVLADGGICCIDEFDKMMDHDRTAIHEVMEQQTISIAKAGIMTTLNARTAIIAAANPAYGRYNPNRSIEQNVDLPAALLSRFDLILLMQDKADRENDKILAEHITYVHQHGCHPNREKKDLISLETLREYISLCKTYTPTVDPALRERIVEAYVEMRRDARYSSDPTFVSPRMILGIVRMATARAKLRLSTIVDESDVEEALRLMQFAKDSLRPEQNKIEKRMAPVDAAFAVLRELYHADNAPIAISNAIQRCARKGISEVALKKCLDQYTANGLLVMDRQNIVFAMN	not soluble
MKVAIASDHGGVHIRNEIKELMDELQIEYIDMGCDCGSGSVDYPDYAFPVAEKVVSGEVDRGILICGTGIGMSISANKVKGIRCALAHDTFSAKATREHNDTNILAMGERVIGPGLAREIAKIWLTTEFTGGRHQTRIGKISDYEEKNL	soluble
MKVAIIAANGGLFDAYKVINIGTAGAAADAEVGVFFTGEGLNLIHKEAHKQWPIPEGKEHFQQGFQKANVPSIAELLQMAQEMGVKLIACQMTMDVMGLDKDQFVDGIEVAGAATFLQFAKDADITLAF	not soluble
MKVAILGASGWIGSHLAAEAKMRGHEVVAVVRDPAKVTLKGVAVQQLDILNPESSLKSVLEGVDAVIASIGGRAAGNHEMVAKTAQRLLNELPQAGVARLLWVGGAGSLEVAPGVKLVTVPGFPEEYKGEALAQGEALEVFRASNSDVNWTFVSPAAEIFPGDKQGQYRVGGDQLLTDSEGNSRISVADYAVALIDELEYAEHPRQRIGVAYLEHHHHHH	not soluble
